Reference: the supplement of paper PMC7125110
± gives the standard error. Fewer inactive variants are shown than the library holds.

B1: glmS ribozyme (parent)
chain: AUAAAAGCGCCAGAACUACAGAAAUGUAGUUGACGAGGAGGAGGUUUAUCGAAUUUUCGGCGGAUGCCUCCAAA

Variants of: B1
Test: self-cleavage kobs at 640 uM GlcN6P; higher = faster cleavage; RNA array
Settings: with glucosamine-6-phosphate
Procedure, shortened: (§1)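 On sequenced MiSeq chips, barcoded ribozyme variants were made in situ by E. coli RNA polymerase and followed at 37 °C through a hybridised Cy3 probe. Glucosamine-6-phosphate was flowed in at 40 μM to 10 mM in HEPES/KCl/Mg(OAc)2 buffer. Exponential fits to normalised per-tile medians gave kobs, and weighted Michaelis–Menten fits gave kcat and KM.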

| Variant | self-cleavage kobs at 640 uM GlcN6P [s⁻¹] |
| --- | --- |
| G43U C67G C70A | < 1e-05 |
| U47A U54G C68G | 6.48e-05 ± 1.2e-05 |
| U46G A53C C67U | 7.34e-05 ± 2.7e-05 |
| C50A G51U U55C | < 1e-05 |
| A36C G63A G66A | < 1e-05 |
| G59C G66C | < 1e-05 |
| G32A G43A G63A A64G | < 1e-05 |
| C58G A64C C67U | 7.21e-05 ± 2e-05 |
| A52G U55G G63U | < 1e-05 |
| G32C A36G G37U | < 1e-05 |
| U49A U55C C71G | < 1e-05 |
| A39U U46A | 0.000305 ± 7.5e-05 |
| A42U U46G A48C | < 1e-05 |
| A52G C58A G63C C68G | 0.00011 ± 4.4e-05 |
| G38A G59C G62U | < 1e-05 |
| U46G C50A C67G | 0.000631 ± 0.00012 |
| G32C G37U G51C | < 1e-05 |
| C34A U49C C58A | < 1e-05 |
| A42U G51C G59U | < 1e-05 |
| U46G A53U G63C C67G | < 1e-05 |
| A39C G59C C68U | < 1e-05 |
| A33G G60C C68G | < 1e-05 |
| G41C U46G U54C C70G | 0.00305 ± 0.00089 |
| C34U A39U | < 1e-05 |
| A33U A39U G41C G43A C70G | < 1e-05 |

| Variant | self-cleavage kobs at 640 uM GlcN6P [s⁻¹] |
| --- | --- |
| A42C A64U U69G | 4.76e-05 ± 1.2e-05 |
| G37A G41A C70U | 0.00119 ± 0.00026 |
| U47C C50A U69G | 5.61e-05 ± 2.5e-05 |
| A36U C61G C70A | 0.000101 ± 3e-05 |
| U47G G51A A52G U65G | < 1e-05 |
| U45C A48U G60A | < 1e-05 |
| A42U G51U A52C C70G | < 1e-05 |
| A33G A48C C68U | < 1e-05 |
| U49G C61U C71A | < 1e-05 |
| G35A U54C A64C | < 1e-05 |
| G44U U47C A48C U69G | < 1e-05 |
| A33U U55C C70U | < 1e-05 |
| A39G U49A C68U | < 1e-05 |
| G41A C58U C70G | < 1e-05 |
| A36U G44C C61U C71A | < 1e-05 |
| G62C A64U G66U | < 1e-05 |
| A42C A53C G60A | < 1e-05 |
| G51C U54A U57A | < 1e-05 |
| U45G C50U C70U | < 1e-05 |
| A64C U65C | < 1e-05 |
| A36C G38A A53U C68G | 9.97e-05 ± 4.4e-05 |
| G63A G66U C67U | < 1e-05 |
| A39U G40U C67A | 0.000118 ± 2.9e-05 |
| C34U A53U C70G | 0.000145 ± 4.1e-05 |
| G44U G62U C68A | < 1e-05 |

Variants of: B1
Test: self-cleavage kobs at 2500 uM GlcN6P; higher = faster cleavage; RNA array
Settings: with glucosamine-6-phosphate
Procedure, shortened: as §1

| Variant | self-cleavage kobs at 2500 uM GlcN6P [s⁻¹] |
| --- | --- |
| U47A U54G C68G | 6.96e-05 ± 1.8e-05 |
| A6G C34G G40A C67G C70U | < 1e-05 |
| U46G A53C C67U | 0.000252 ± 8.5e-05 |
| C50A G51U U55C | < 1e-05 |
| C8A A15C G32A | < 1e-05 |
| A6U G29U A36G G44A U55C | < 1e-05 |
| A6C A12U U49A A53G U54A | < 1e-05 |
| G32A G43A G63A A64G | < 1e-05 |
| A6U A52G C67G | 0.000425 ± 0.00018 |
| A52G U55G G63U | 0.000758 ± 0.0003 |
| C8A A48C U49A | < 1e-05 |
| A39U U46A | 0.000711 ± 0.00023 |
| G7A A64C C67G U69G | < 1e-05 |
| A6G C16A C34A A36U G43U | < 1e-05 |
| C8U G13A A15G | < 1e-05 |
| G9A A33U A39C A42U U46G U55A G60U A64U | < 1e-05 |
| A52G C58A G63C C68G | 0.000102 ± 2.9e-05 |
| G7A G32U C58U C67U | < 1e-05 |
| U46G C50A C67G | 0.000506 ± 0.00017 |
| G7A U30G G32A A39G | < 1e-05 |
| A6G C10U U31A G60U C67U | < 1e-05 |
| G41C U46G U54C C70G | 0.00908 ± 0.0027 |

| Variant | self-cleavage kobs at 2500 uM GlcN6P [s⁻¹] |
| --- | --- |
| C34U A39U | < 1e-05 |
| C8G A15U U47G | < 1e-05 |
| A6C G32A G59C | < 1e-05 |
| A42C A64U U69G | 9.13e-05 ± 1.9e-05 |
| G37A G41A C70U | 0.00206 ± 0.00053 |
| U47C C50A U69G | 9.43e-05 ± 2.6e-05 |
| G7C G29U G35U | < 1e-05 |
| U47G G51A A52G U65G | < 1e-05 |
| U45C A48U G60A | < 1e-05 |
| A6U G35C U56A G60U A64G | < 1e-05 |
| U49G C61U C71A | < 1e-05 |
| G44U U47C A48C U69G | < 1e-05 |
| G41A C58U C70G | < 1e-05 |
| G62C A64U G66U | < 1e-05 |
| C8G C10U G37U A42C U54G A64G C70G | < 1e-05 |
| A42C A53C G60A | < 1e-05 |
| G51C U54A U57A | < 1e-05 |
| G7C G13A A52U G66C | < 1e-05 |
| G63A G66U C67U | < 1e-05 |
| A39U G40U C67A | 0.000561 ± 0.00019 |
| G44U G62U C68A | < 1e-05 |

Variants of: B1
Test: self-cleavage kobs at 10000 uM GlcN6P; higher = faster cleavage; RNA array
Settings: with glucosamine-6-phosphate
Procedure, shortened: as §1

| Variant | self-cleavage kobs at 10000 uM GlcN6P [s⁻¹] |
| --- | --- |
| G59C G66C | < 1e-05 |
| A39U U46A | 0.00219 ± 0.00035 |
| C34U A39U | < 1e-05 |
| U49G C61U C71A | < 1e-05 |
| A64C U65C | < 1e-05 |
